According to patent US20030100089A1:

T1: Cathepsin G
T1 sequence (P08311 21-244, species assumed, looked up): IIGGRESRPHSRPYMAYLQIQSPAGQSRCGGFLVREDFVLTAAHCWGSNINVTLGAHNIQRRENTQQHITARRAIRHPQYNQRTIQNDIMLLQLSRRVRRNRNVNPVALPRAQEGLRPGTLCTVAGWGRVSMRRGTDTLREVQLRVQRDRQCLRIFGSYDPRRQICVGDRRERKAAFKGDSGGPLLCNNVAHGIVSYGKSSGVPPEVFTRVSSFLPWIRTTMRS

T2: MMP-7
T2 sequence (P09237 95-267, species assumed, looked up): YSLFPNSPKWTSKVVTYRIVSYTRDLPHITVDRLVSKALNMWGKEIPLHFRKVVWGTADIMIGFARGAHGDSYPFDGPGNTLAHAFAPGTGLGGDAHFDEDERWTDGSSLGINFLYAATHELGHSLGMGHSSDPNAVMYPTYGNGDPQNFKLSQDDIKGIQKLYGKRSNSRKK


Tests used:
[1] = target: human leukocyte elastase (HLE) (human) (UniProt P08246); assay: cell-based or functional assay
Cathepsin G = target: T1, Cathepsin G; assay: cell-based or functional assay
[2] = target: porcine pancreatic elastase (PPE) (porcine) (UniProt P00772); assay: cell-based or functional assay
UniProt P00772, sequence (P00772 27-266): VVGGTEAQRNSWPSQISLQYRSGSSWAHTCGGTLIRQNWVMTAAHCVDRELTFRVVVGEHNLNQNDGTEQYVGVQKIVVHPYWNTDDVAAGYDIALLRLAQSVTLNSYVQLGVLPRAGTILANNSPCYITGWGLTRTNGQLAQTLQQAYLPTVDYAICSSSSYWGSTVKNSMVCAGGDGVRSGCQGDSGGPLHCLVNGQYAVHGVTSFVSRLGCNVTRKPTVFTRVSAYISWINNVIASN

Papaine = assay: cell-based or functional assay
MMP-2 = assay: cell-based or functional assay
Trypsin = assay: cell-based or functional assay
Plasmin = assay: cell-based or functional assay
MMP-7 = target: T2, MMP-7; assay: cell-based or functional assay
Cathepsin D = assay: cell-based or functional assay
Chymotrypsin = assay: cell-based or functional assay
Thrombin = assay: cell-based or functional assay
[3] = target: p54 protein (glycoprotein of about 54 kDa isolated from shark cartilage, serine protease inhibitor)

Alpha 1-antitrypsin (AAT), sequence (P01009 25-418): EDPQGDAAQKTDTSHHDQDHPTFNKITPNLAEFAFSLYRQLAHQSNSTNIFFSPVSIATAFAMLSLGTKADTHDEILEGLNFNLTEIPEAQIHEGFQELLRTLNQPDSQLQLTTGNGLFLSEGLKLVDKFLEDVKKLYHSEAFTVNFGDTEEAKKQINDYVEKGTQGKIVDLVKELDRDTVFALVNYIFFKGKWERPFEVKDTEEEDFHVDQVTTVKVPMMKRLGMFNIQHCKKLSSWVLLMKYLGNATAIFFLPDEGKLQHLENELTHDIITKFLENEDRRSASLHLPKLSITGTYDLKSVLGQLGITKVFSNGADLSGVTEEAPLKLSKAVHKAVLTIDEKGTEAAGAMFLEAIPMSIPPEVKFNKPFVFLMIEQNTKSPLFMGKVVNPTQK

| Activity (% inhibition) [1] | Activity (% inhibition) (Cathepsin G) | Activity (% inhibition) [2] | Activity (% inhibition) (Papaine) | Activity (% inhibition) (MMP-2) | Activity (% inhibition) (Trypsin) | Activity (% inhibition) (Plasmin) | Activity (% inhibition) (MMP-7) | Activity (% inhibition) (Cathepsin D) | Activity (% inhibition) (Chymotrypsin) | Activity (% inhibition) (Thrombin) | Molecule | elastase assay (fluorescent elastin substrate) [3] |
| --- | --- | --- | --- | --- | --- | --- | --- | --- | --- | --- | --- | --- |
| 42 % inhibition | 0 % inhibition | 84 % inhibition | 8 % inhibition | 0 % inhibition | 30 % inhibition | 49 % inhibition | 0 % inhibition | 0 % inhibition | 53 % inhibition | 0 % inhibition | p54 protein (glycoprotein of about 54 kDa isolated from shark cartilage, serine protease inhibitor) |  |
|  | 68 % inhibition | 64 % inhibition |  |  | 94 % inhibition | 49 % inhibition | 0 % inhibition | 77 % inhibition | 100 % inhibition |  | Alpha 1-antitrypsin (AAT) |  |
|  |  |  |  |  |  |  |  |  |  |  | human leukocyte elastase (HLE) (protein) IVGGRRARPHAWPFMVSLQLRGGHFCGATLIAPNFVMSAAHCVANVNVRAVRVVLGAHNLSRREPTRQVFAVQRIFENGYDPVNLLNDIVILQLNGSATINANVQVAQLPAQGRRLGNGVQCLAMGWGLLGRNRGIASVLQELNVTVVTSLCRRSNVCTLVRGRQAGVCFGDSGSPLVCNGLIHGIASFVRGGCASGLYPDAFAPVAQFVNWIDSIIQ | The inhibition of elastase by the p54 protein was also validated with a human leukocyte elastase |
